Reference: patent US20250121081A1 (JIANGSU HENGRUI PHARMACEUTICALS, published 2025)

Key:
[1] = target: T1, human ROR1 (Cat. #19771-H08H, Sino Biological) antigen (human, UniProt Q01973 30-403); assay: SPR (Biacore T200), IgG captured on Protein A chip, human ROR1 as analyte, 1:1 model
T1 construct: Bought soluble antigen used as SPR analyte
Method: (§1) The anti-ROR1 antibody was analyzed by Biacore T200 (Cytiva) for affinity characterization and binding kinetics. The IgG antibody was subjected to affinity capture by a Protein A biosensor chip (Cat. #29127556, Cytiva), and then a human ROR1 (Cat. #19771-H08H, Sino Biological) antigen that was diluted with the HBS-EP buffer (pH 7.4, Cat. #BR-1006-69, Cytiva) to a series of concentrations was allowed to flow over the surface of the chip. The antigen-antibody binding kinetics was tracked for 3 min and the dissociation kinetics was tracked for 10 min. Reaction signals were detected in real time using a Biacore T200 instrument to obtain binding and dissociation curves. After dissociation was complete in each cycle, the biosensor chip was washed with 10 mM Gly-HCl at pH 1.5 (Cat. #BR-1003-54, Cytiva) for regeneration. The data obtained were analyzed with BIAevaluation software of Cytiva using a 1:1 (Langmuir) binding model.

[2] = target: T2, rat ROR1-His (Cat. #RO1-R5221, Acro) antigen (rat, UniProt D3ZZ97 30-406); assay: SPR (Biacore T200), IgG captured on Protein A chip, antigen as analyte
T2 construct: Bought His-tagged antigen; not shown: His tag
Method: as §1, with “a mouse ROR1-His” for “a human ROR1”, “(Cat. #RO1-M522, Acro) antigen and a rat ROR1-His (Cat. #RO1-R5221, Acro)” for “(Cat. #19771-H08H, Sino Biological)”, “that were” for “that was”, “concentrations were” for “concentrations was”, “for 15” for “for 10”

[3] = target: T3, mouse ROR1-His (Cat. #RO1-M522, Acro) antigen (mouse, UniProt Q9Z139 30-403); assay: as above
T3 construct: Bought His-tagged antigen; not shown: His tag
Method: as §1, with “a mouse ROR1-His” for “a human ROR1”, “(Cat. #RO1-M522, Acro) antigen and a rat ROR1-His (Cat. #RO1-R5221, Acro)” for “(Cat. #19771-H08H, Sino Biological)”, “that were” for “that was”, “concentrations were” for “concentrations was”, “for 15” for “for 10”

[4] = target: T4, human ROR1 on cells (ROR1-CHO-K1, Jeko-1, MDA-MB-231, HCC827/ROR1) (human, UniProt Q01973 30-937); assay: cell-based or functional assay
[5] = target: T4, human ROR1 on cells (ROR1-CHO-K1, …); assay: cell-based or functional assay; remark: listed apart in the source
[6] = target: T4, human ROR1 on cells (ROR1-CHO-K1, …); assay: flow cytometry on ROR1-CHO-K1 cells
Method: (§2) ROR1-CHO-K1 cells (Example 1), Jeko-1 cells (ATCC, CRL-3006), or MDA-MB-231 cells (ATCC, CRM-HTB-26) were separately suspended in a FACS buffer (2% fetal bovine serum (Gibco, 10099141) and PBS at pH 7.4 (Sigma, P4417-100TAB) to prepare a cell suspension at 1× 10⁶ cells/mL, and the suspension was then added to a 96-well round-bottom plate at 100 μL/well. After centrifugation and removal of the supernatant, the test antibody that was diluted with the FACS buffer to different concentrations was added at 50 μL/well. The plate was incubated in the dark in a 4° C. refrigerator for 1 h. The plate was washed 3 times with the FACS buffer by centrifugation at 500 g, and a fluorescent secondary antibody at a working concentration was added. The plate was incubated in the dark in the 4° C. refrigerator for 40 min. The plate was washed 3 times with the FACS buffer by centrifugation at 500 g and tested on a BD FACSCantoII flow cytometer for geometric mean fluorescence intensity, and the EC₅₀ values for the binding of the antibody to the cells expressing ROR1 were calculated.

[7] = target: T4, human ROR1 on cells (ROR1-CHO-K1, …); assay: flow cytometry on Jeko-1 cells
Method: as §2

[8] = target: T3, mouse ROR1-His (Cat. #RO1-M522, Acro) …; assay: SPR (Biacore T200), IgG captured on Protein A chip, mouse ROR1-His as analyte, 1:1 model
Method: as §1, with “a mouse ROR1-His” for “a human ROR1”, “(Cat. #RO1-M522, Acro) antigen and a rat ROR1-His (Cat. #RO1-R5221, Acro)” for “(Cat. #19771-H08H, Sino Biological)”, “that were” for “that was”, “concentrations were” for “concentrations was”, “for 15” for “for 10”

[9] = target: T4, human ROR1 on cells (ROR1-CHO-K1, …); assay: flow cytometry on MDA-MB-231 cells
Method: as §2

[10] = target: T2, rat ROR1-His (Cat. #RO1-R5221, Acro) …; assay: SPR (Biacore T200), IgG captured on Protein A chip, rat ROR1-His as analyte, 1:1 model
Method: as §1, with “a mouse ROR1-His” for “a human ROR1”, “(Cat. #RO1-M522, Acro) antigen and a rat ROR1-His (Cat. #RO1-R5221, Acro)” for “(Cat. #19771-H08H, Sino Biological)”, “that were” for “that was”, “concentrations were” for “concentrations was”, “for 15” for “for 10”

T1 sequence (Q01973 30-403 limits assumed): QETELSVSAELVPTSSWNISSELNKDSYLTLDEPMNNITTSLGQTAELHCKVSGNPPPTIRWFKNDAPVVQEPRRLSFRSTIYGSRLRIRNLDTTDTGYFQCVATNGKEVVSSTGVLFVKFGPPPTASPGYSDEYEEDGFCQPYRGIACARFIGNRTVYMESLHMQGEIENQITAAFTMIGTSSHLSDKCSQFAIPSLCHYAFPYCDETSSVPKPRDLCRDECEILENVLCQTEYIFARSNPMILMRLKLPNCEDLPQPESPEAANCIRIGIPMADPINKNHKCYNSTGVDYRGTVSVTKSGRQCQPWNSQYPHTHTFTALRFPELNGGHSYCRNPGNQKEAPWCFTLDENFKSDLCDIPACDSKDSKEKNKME
T4 sequence (Q01973 30-937 limits assumed): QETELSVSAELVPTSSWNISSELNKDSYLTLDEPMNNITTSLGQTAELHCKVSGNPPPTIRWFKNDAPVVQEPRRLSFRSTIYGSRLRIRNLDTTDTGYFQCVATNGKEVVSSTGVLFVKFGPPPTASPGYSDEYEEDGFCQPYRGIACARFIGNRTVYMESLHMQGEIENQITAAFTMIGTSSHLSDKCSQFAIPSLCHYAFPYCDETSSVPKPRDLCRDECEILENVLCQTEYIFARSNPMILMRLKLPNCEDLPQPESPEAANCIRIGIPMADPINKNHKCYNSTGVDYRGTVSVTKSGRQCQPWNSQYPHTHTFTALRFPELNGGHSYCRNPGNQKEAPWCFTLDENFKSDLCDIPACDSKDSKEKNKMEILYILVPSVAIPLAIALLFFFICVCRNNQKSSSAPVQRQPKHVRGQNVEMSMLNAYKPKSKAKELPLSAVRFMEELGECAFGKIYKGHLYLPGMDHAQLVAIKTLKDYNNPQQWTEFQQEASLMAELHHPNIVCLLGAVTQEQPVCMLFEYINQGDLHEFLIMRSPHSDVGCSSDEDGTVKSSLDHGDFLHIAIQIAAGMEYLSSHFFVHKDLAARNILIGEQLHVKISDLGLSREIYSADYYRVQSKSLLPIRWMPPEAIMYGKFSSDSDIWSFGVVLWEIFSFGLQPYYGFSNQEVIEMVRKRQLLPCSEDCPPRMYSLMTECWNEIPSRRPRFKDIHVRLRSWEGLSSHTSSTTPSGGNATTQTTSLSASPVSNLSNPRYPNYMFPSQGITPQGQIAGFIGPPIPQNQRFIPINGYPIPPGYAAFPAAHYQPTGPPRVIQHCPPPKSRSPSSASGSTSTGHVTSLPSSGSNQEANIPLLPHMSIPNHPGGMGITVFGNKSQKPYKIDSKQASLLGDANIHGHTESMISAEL
T3 sequence (Q9Z139 30-403 limits assumed): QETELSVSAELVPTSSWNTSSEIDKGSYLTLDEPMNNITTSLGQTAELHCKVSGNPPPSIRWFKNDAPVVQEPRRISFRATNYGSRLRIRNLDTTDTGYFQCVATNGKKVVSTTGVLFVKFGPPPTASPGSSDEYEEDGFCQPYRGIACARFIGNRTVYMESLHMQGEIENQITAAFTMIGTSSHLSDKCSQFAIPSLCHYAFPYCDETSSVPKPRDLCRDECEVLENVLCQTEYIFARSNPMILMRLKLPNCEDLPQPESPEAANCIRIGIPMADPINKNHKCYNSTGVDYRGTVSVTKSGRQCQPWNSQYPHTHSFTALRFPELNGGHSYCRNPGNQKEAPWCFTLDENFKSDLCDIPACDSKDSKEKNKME

Row | Kd [1] | koff [1] | kon [1] | Binder | IC50 (nM), killing of HCC827/ROR1 (+++) cells [4] | IC50 (nM), killing of Jeko-1 (+) cells [4] | IC50 (nM), killing of MDA-MB-231 (+) cells [4] | further results
1 | 91 nM | 0.0546 s⁻¹ | 600000 M⁻¹ s⁻¹ | anti-ROR1 antibody Ab1 in WO2018237335 (positive control) (antibody, human IgG1, kappa, V domains shown, Positive control antibody; also called Abl) VH: QVQLQESGPGLVKPSQTLSLTCTVSGYAFTAYNIHWVRQAPGQGLEWMGSFDPYDGGSSYNQKFKDRLTISKDTSKNQVVLTMTNMDPVDTATYYCARGWYYFDYWGHGTLVTVSS VL: DIVMTQTPLSLPVTPGEPASISCRASKSISKYLAWYQQKPGQAPRLLIYSGSTLQSGIPPRFSGSGYGTDFTLTINNIESEDAAYYFCQQHDESPYTFGEGTKVEIKR | – | – | – | binding result [2]: no binding; binding result [3]: no binding
2 | – | – | – | ADC-5 (antibody 347 conjugated to compound 9A, n=3.99) (antibody, human IgG1, kappa, V domains shown, linker-drug compound 9A conjugated after TCEP reduction; average drug loading n=3.99 per antibody; sites not stated) VH: QVQLVQSGAEVKKPGSSVKVSCKASGYTFTDYYISWVRQGPGQGLEWMGGINAGNGNTNYAQKFQGRVTITADESTSTAYMELSSLRSEDTAVYYCASPGWDVFDIWGQGTMVTVSS VL: DIQMTQSPSPLSASVGDRVTITCQASQDISNYLNWYQQKPGKAPKLLIYDASNLETGVPSRFSGSGSGTDFTFTISSLQPEDIATYYCQQHEDLPITFGQGTRLEIKR | 4.36 nM | 58.1 nM | 349 nM | –
3 | – | – | – | ADC-4 (antibody 347 conjugated to compound 9A, n=7.39) (antibody, human IgG1, kappa, V domains shown, linker-drug compound 9A conjugated after TCEP reduction; average drug loading n=7.39 per antibody; sites not stated) VH: QVQLVQSGAEVKKPGSSVKVSCKASGYTFTDYYISWVRQGPGQGLEWMGGINAGNGNTNYAQKFQGRVTITADESTSTAYMELSSLRSEDTAVYYCASPGWDVFDIWGQGTMVTVSS VL: DIQMTQSPSPLSASVGDRVTITCQASQDISNYLNWYQQKPGKAPKLLIYDASNLETGVPSRFSGSGSGTDFTFTISSLQPEDIATYYCQQHEDLPITFGQGTRLEIKR | 1.36 nM | 17.4 nM | 146 nM | –
4 | 1.18 nM | 0.00273 s⁻¹ | 2.31e+06 M⁻¹ s⁻¹ | fully human ROR1 antibody 347 (antibody, human IgG1, kappa, V domains shown, Full-length human IgG1/kappa) VH: QVQLVQSGAEVKKPGSSVKVSCKASGYTFTDYYISWVRQGPGQGLEWMGGINAGNGNTNYAQKFQGRVTITADESTSTAYMELSSLRSEDTAVYYCASPGWDVFDIWGQGTMVTVSS VL: DIQMTQSPSPLSASVGDRVTITCQASQDISNYLNWYQQKPGKAPKLLIYDASNLETGVPSRFSGSGSGTDFTFTISSLQPEDIATYYCQQHEDLPITFGQGTRLEIKR | – | – | – | IC50 (nM) (DT3C endocytosis killing on ROR1-CHOK1) [5]: 0.596 nM; EC50 [6]: 0.502 nM; EC50 [7]: 0.098 nM; Kd [8]: 0.238 nM; koff [8]: 0.000676 s⁻¹; kon [8]: 2.84e+06 M⁻¹ s⁻¹; EC50 [9]: 0.094 nM; Kd [10]: 0.0315 nM; koff [10]: 0.00115 s⁻¹; kon [10]: 3.66e+07 M⁻¹ s⁻¹
